For one data set, the system named is ZFP 46025 (synthetic). The data set can be described thus: cell_activity. The settings on record: AAV9 in mouse striatum, 5 weeks, qRT-PCR. (Real-time PCR tracks product formation cycle by cycle.)
The test system of a further data set is ZFP 45643 (synthetic). The data set can be described thus: cell_activity. The note with it: AAV9 in mouse striatum, 5 weeks, qRT-PCR; 70% at 12 weeks.

Regarding “mutant Htt allele expanded CAG repeat (Q50, 48 CAGs)”, the activity in the data set with ZFP 46025 (synthetic) turned out to be 74 % repression; with ZFP 45643 (synthetic) it was 79 % repression.

The record behind these values is patent US20170096460.
